Columns and labels:
[1] = test system: Tiki1 and Dkk1 expression; test: RT-PCR of Tiki1 and Dkk1 expression in treated whole embryos (FIG. 2M); format: in vivo, Xenopus
Method: (M) Tiki1 expression is regulated by maternal Wnt signaling. Whole embryos were used for LiCl or UV treatment. 20 or 40 pg of Xwnt8 mRNA was injected into the ventral marginal zone (VMZ) at 4 to 8-cell stage and the VMZ was dissected at stage 10.5 for RT-PCR. ΔNTCF mRNA (1 or 2 ng) was injected into the dorsal marginal zone (DMZ) at 4 to 8-cell stage and the DMZ was dissected at stage 10.5 for RT-PCR. Con: control.
Organizer formation requires maternal Wnt/β-catenin signaling (De Robertis and Kuroda, 2004; Harland and Gerhart, 1997), which is necessary and sufficient for Tiki1 (and Dkk1) expression. Ectopic Xwnt8 induced Tiki1 and Dkk1 expression ventrally, whereas a dominant negative TCF (T cell factor, a DNA-binding transcription factor that mediates beta-catenin signaling), ΔNTCF (Molenaar et al., 1996), suppressed the endogenous Tiki1 and Dkk1 dorsal expression (FIG. 2M). Furthermore LiCl, which stabilizes β-catenin thus dorsalizes embryos, induced Tiki1 and Dkk1 expression, while ultraviolet irradiation, which through microtubule disruption causes defective maternal Wnt signaling thus ventralizes embryos (Harland and Gerhart, 1997), suppressed Tiki1 and Dkk1 expression (FIG. 2M).

[2] = test system: Wnt3a; test: TOPFLASH assay of TIKI2N mutants co-transfected with Wnt3a in HEK293T cells; format: cell-based, human; conditions: 5, 2.5, 1.25 and 0.612 ng plasmid with Wnt3a 20 ng
Method: FIG. 8B. Bar graph showing the results of a TOPFLASH assay testing TIKI2 mutations in Human TIKI2N construct (no transmembrane domain). Decreasing doses of 5, 2.5, 1.25 and 0.612 ng of the indicated TIKI2N expression plasmid were cotransfected with Wnt3a (20 ng) in HEK293T cells.
HEK293T, HeLa, L and L-Wnt3a cells (from ATCC) were maintained in Dulbecco's modified Eagle's medium (DMEM; Invitrogen) supplemented with 10% fetal bovine serum (FBS) and 1% penicillin-streptomycin-glutamine (Invitrogen). Lipofectamine 2000 (Invitrogen) or Fugene6 (Roche) was used for all cell transfections. L and L-Wnt3a cells that stably express TIKI2 were generated by infecting cells with retroviruses and selected by puromycin. L cells stably expressing Wnt3a(FLAG) were established by transfecting L cells with a Wnt3a(FLAG) expressing vector and selected with neomycine. L cells stably expressing both Wnt3a(FLAG) and TIKI2 were also generated. TOPFLASH reporter assay was performed as previously described (MacDonald et al., 2008).
A Wnt-responsive reporter (TOP-FLASH) assay was performed to test mutations at T56A, H58A, E85A, E205A, H256A, R303A, H331A in a Human TIKI2N construct (no transmembrane domain). Decreasing doses of 5, 2.5, 1.25 and 0.612 ng of the indicated TIKI2N expression plasmid were co-transfected with Wnt3a (20 ng) in HEK293T cells. […] T56A, H256A, and R303A had no effect on TIM activity, and so are likely to be less important sites for function.

Molecule	Tiki1 and Dkk1 expression [1]	TIKI activity of TIKI2N mutants (inhibition of Wnt3a-induced TOPFLASH) [2]
[Cl-].[Li+] [LiCl]	induced	–
T56A: alanine mutation in Human TIKI2N construct (no transmembrane domain) (protein, UniProt A6NFA1 20-494, looked up, variant T56A, extracellular domain) extracellular domain: RPQPPDGGQCRPPGSQRDLNSFLWTIRRDPPAYLFGAIHVPYTRVWDFIPDNSKAAFQASTRVYFELDLTDPYTISALASCQLLPHGENLQDVLPHELYWRLKRHLDYVKLMMPSWMTPAQRGKGLYADYLFNAIAGNWERKRPVWVMLMVNSLTERDVRFRGVPVLDLYLAQQAEKMKKTTGAVEQVEEQCHPLNNGLNFSQVLFALNQTLLQQESVRAGSLQASYTTEDLIKHYNCGDLSAVIFNHDTSQLPNFINTTLPPHEQVTAQEIDSYFRQELIYKRNERMGKRVMALLRENEDKICFFAFGAGHFLGNNTVIDILRQAGLEVDHTPAGQAIHSPAPQSPAPSPEGTSTSPAPVTPAAAVPEAPSVTPTAPPEDEDPALSPHLLLPDSLSQLEEFGRQRKWHKRQSTHQRPRQFNDLWVRIEDSTTASPPPLPLQPTHSSGTAKPPFQLSDQLQQQDPPGPASSSAPT	–	no effect
R303A: alanine mutation in Human TIKI2N construct (no transmembrane domain) (protein, UniProt A6NFA1 20-494, looked up, variant R303A, extracellular domain) extracellular domain: RPQPPDGGQCRPPGSQRDLNSFLWTIRRDPPAYLFGTIHVPYTRVWDFIPDNSKAAFQASTRVYFELDLTDPYTISALASCQLLPHGENLQDVLPHELYWRLKRHLDYVKLMMPSWMTPAQRGKGLYADYLFNAIAGNWERKRPVWVMLMVNSLTERDVRFRGVPVLDLYLAQQAEKMKKTTGAVEQVEEQCHPLNNGLNFSQVLFALNQTLLQQESVRAGSLQASYTTEDLIKHYNCGDLSAVIFNHDTSQLPNFINTTLPPHEQVTAQEIDSYFRQELIYKANERMGKRVMALLRENEDKICFFAFGAGHFLGNNTVIDILRQAGLEVDHTPAGQAIHSPAPQSPAPSPEGTSTSPAPVTPAAAVPEAPSVTPTAPPEDEDPALSPHLLLPDSLSQLEEFGRQRKWHKRQSTHQRPRQFNDLWVRIEDSTTASPPPLPLQPTHSSGTAKPPFQLSDQLQQQDPPGPASSSAPT	–	no effect
